Test results: the supplement of paper PMC12042874
± gives the uncertainty stated by the source.

Assay: amyloid nucleation score (Sup35N fusion, yeast selection) (log enrichment); library NNK1; higher = more nucleation; inactive = no reads after selection
Procedure, shortened: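 Sup35N fusions to peptides of 20 random codons were expressed in psi-negative yeast, induced 24 hours with 100 μM copper sulfate, and grown 7 days at 30°C on medium lacking adenine and uracil. Input and output plasmid inserts were sequenced by Illumina. The nucleation score is the DiMSum log enrichment of output over input reads, centred on the mode score of non-aggregating sequences. Sequences with under 100 input reads were excluded.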

Substance	amyloid nucleation score
CIVVMGSVAYHGRFYFVDVE	1.43 ± 0.76
CIVVTLYSIMFRDGS	inactive
CKMNYGLVLAGSLGVGSGQD	0.317 ± 0.42
CKRLS	-0.216 ± 1.1
CKRTSDPCHIVECFLPFHVL	0.315 ± 0.85
CKVTSGDIQTYGVLGPQRPA	-1.05 ± 1.1
CLFDHKFMRIALHL	inactive
CLFKGLCSGWLREYALPYFC	-1.05 ± 0.97
CLINFP	0.722 ± 0.74
CLLTNTKFWYISMSHDLGCL	0.559 ± 0.34
CLMGTHILGSRVVGTPSMVR	0.47 ± 1.2
CLMIKMHSILIDVIYLHTRV	-0.363 ± 0.77
CLRPLEPDVYVTRILRFCDS	-0.304 ± 0.39
CMKYMLCARKYFKSYSWLLS	1.04 ± 0.73
CMLDGALLLILVVFTIPCLN	0.909 ± 0.6
CMMMYVCLLSSGHVGMSLGV	0.18 ± 0.43
CMSLFRYENVQYLFTRIHSI	1.43 ± 0.34
CMWWSCGSNIVYVALLMWCH	-0.191 ± 0.4
CNCAKSNVRCLFLFFDGQTR	0.775 ± 0.92
CNCMVLSPLDVMEPIAMGFQ	0.455 ± 1.4
CNISAITRFTEIWSRVTSVF	1.59 ± 0.8
CNMKNDLTRGNSRFCNLCCN	0.85 ± 0.53
CNTLDLMAFNSLYLSPVSTC	inactive
CNWATLTMWLLSCIRPTPRS	-1.1 ± 2.4
CNWVIRNPYVGPIRSNVHGS	0.124 ± 0.58
CPASKFDQGP	-0.038 ± 0.81

Substance	amyloid nucleation score
CPLSNGSVRVNDGATTLAWL	-0.956 ± 2.1
CPRPYDRSALSRKLY	0.713 ± 0.32
CPSEYQIAGMIASSYMHLGE	0.872 ± 0.33
CPTEGGLVWSYWSLS	1.09 ± 0.83
CPVKGFLSVTACDYL	-0.384 ± 0.57
CQFDVGAQLAYYGR	inactive
CQQVLWS	0.039 ± 0.79
CRASFACERDNIS	0.547 ± 0.31
CRCAPYSNGKTGIHARLFNT	0.794 ± 1.1
CRLFVFPF	-0.336 ± 1.4
CRMTGSFKSTCRSKGLASCS	0.002 ± 0.3
CRNLFMWDIRRGKYITARKK	-0.779 ± 1.6
CRNWKWSRRFYYGERNGGRL	0.416 ± 0.81
CRRRMFLQVPRIYFEMRSYA	0.492 ± 0.91
CRSTYDQLPEYLST	-0.117 ± 0.56
CRTCGFPLLYSAELVLEVC	0.018 ± 0.45
CRWSVLGREFSSQFVCWEDW	-0.59 ± 0.54
CRYPWRH	-0.042 ± 0.6
CSAASVCPGD	-0.116 ± 1.5
CSCEVNMRLIGCKK	-0.253 ± 1.2
CSCYRFLGDSKWIRHHINRT	-0.679 ± 0.85
CSFFTKDSDTP	0.327 ± 0.3
CSGNLVMVLSAACAKVGYLV	-1.48 ± 1.7
CSGWMNGLSRVKPAHL	inactive
CSHGNYHITCCPHAFFMTAI	4.91 ± 0.098
CSKSS	-0.909 ± 2.7

Substance	amyloid nucleation score
CSLSETFPKVYFMWTQRSYV	-1.36 ± 2.4
CSNLM	-0.675 ± 0.66
CSNVGVCGMSIH	5.01 ± 0.052
CSSALGIMKWTRIYVCRGRG	1.6 ± 0.24
CSVFWCFVLGLVNRNLLKRS	-0.928 ± 0.4
CSWAASY	-0.689 ± 1.9
CSWLSFVEEVGLGSERGVRG	-0.629 ± 1
CSYRWVELLCSC	3.93 ± 0.11
CTGFLRVWPLGEMYEDRR	0.12 ± 0.58
CTMSTSMPHRAVRRELSSIE	0.052 ± 0.3
CTPFMRTSLSFICSDSSVML	0.771 ± 0.82
CTSVRVLGSNQCSYGVSKCR	-0.39 ± 0.39
CTVDMEGFGFSRIVVDRGRS	-0.118 ± 0.6
CTVMDRLLTQEPTNRRWSRY	0.06 ± 0.84
CTYTAPYAPSLMPGPRVGYI	inactive
CVFSVRYALDRWDPTKCEVG	0.325 ± 0.43
CVFVRVF	inactive
CVFYGFWYFGW	0.145 ± 0.34
CVGDFVME	-0.318 ± 0.98
CVHQIVGLTRIPFGWELSWR	-1.62 ± 1.7
CVIRKSLFKCQFSMIRESWV	0.298 ± 0.31
CVKLGYYWSF	0.598 ± 0.16
CVLRMNVFDSKGFWVGYRRD	0.602 ± 0.41
CVLSPALFMRARLLRGILGR	0.332 ± 0.72
CVMWGTLRFLNLASGLFLCA	0.778 ± 0.93
CVNKPLNGHLANMSWRGY	1.15 ± 0.57

Substance	amyloid nucleation score
CVPSVRNSVMW	-0.181 ± 0.88
CVRFDSVNCHHLF	0.238 ± 0.24
CVSHFIHCDWLGQRL	0.135 ± 0.26
CVSYNLFLWSYFKRWSNRTC	0.141 ± 0.79
CVVRVWVYRGGKYVYLEKAP	-1.48 ± 1.4
CWAKEFFNNESIRG	0.077 ± 0.49
CWDKRLNSY	0.688 ± 0.61
CWIMYDYSSPGLFL	-1.1 ± 1.6
CWPRWNSVSLGSLSILLCFF	3.77 ± 0.11
CWQSGMCNRSRMQAVRVPHD	0.698 ± 0.56
CWRFRPFRPASIKFTQYNNH	4.49 ± 0.072
CYAPSGLLNLPNASFS	-1.26 ± 1.5
CYATMYAQGDRRSGDGCLPT	-1.86 ± 1.4
CYCFGQCWYDYVCIELLIGR	5.06 ± 0.052
CYDGDRFIEEA	0.364 ± 0.66
CYEEPRMPNFFAVFYNSMLE	0.144 ± 0.41
CYFVCNDHCYFYQSLLQTHE	5.32 ± 0.058
CYGFLVSMMSYLSLVELVFL	-0.04 ± 0.26
CYKPPLWMMYLLLRRDVYRD	inactive
CYKVFPVVSYKVGGASLTAR	0.105 ± 0.31
CYLACLLQTHYND	-1.18 ± 2.7
CYPPEVF	1.31 ± 0.67
CYSQDRSRLVSEDYY	-0.525 ± 0.34
CYSWHGVYRGYVYSSYNNYV	0.77 ± 0.52
DAFIV	-0.684 ± 0.54
DAGNVLARLDGFNAG	-0.121 ± 0.49

Substance	amyloid nucleation score
DALDLRSWQGEL	-0.274 ± 1.7
DALII	0.257 ± 0.4
DAQFGRHVLGLFFSRQEMLV	-1.52 ± 1.2
DARLC	-0.226 ± 1
DCGRWNRKRPNSVLGVYL	1.48 ± 0.88
DCHVRCLRQV	0.611 ± 0.35
DCPSS	0.537 ± 0.29
DCQVAVPLRIVKANSVILCG	0.26 ± 0.37
DDCRMYAFL	0.776 ± 0.36
DDFAMLE	inactive
DDRLLCI	-1.85 ± 2.1
DDSFVLFW	-0.042 ± 0.55
DDWAGLKFSYLWSVCCKWWD	2.52 ± 0.15
DEITLMLA	0.155 ± 0.35
DERNACLSSFGVNLRLIKLS	-0.002 ± 0.4
DFFGWTNRNHQNSDSFLWDG	0.69 ± 0.41
DFGLCHAQNSITQAPDR	-0.153 ± 0.93
DFKVAL	-0.644 ± 0.35
DFLKGLFIRFRKSNFE	-1.11 ± 1.7
DFPVAIVDLRVCWSYLL	0.526 ± 0.68
DFSSNDGWV	0.444 ± 0.47
DFTVA	0.596 ± 0.78
DFVMLEV	-0.594 ± 0.68
DFVRRSNRYRYIVKIV	0.203 ± 0.39
DFYNETVTFFTHKIVINNWT	2.17 ± 0.31
DGGICYD	0.733 ± 0.31
